Each binder was assayed against recombinant light chain enterokinase (Novagen, Madison, Wis.) (UniProt P98072 801-1035) (assay: cell-based or functional assay).
Chain of recombinant light chain enterokinase (Novagen, Madison, Wis.) (P98072 801-1035 limits assumed): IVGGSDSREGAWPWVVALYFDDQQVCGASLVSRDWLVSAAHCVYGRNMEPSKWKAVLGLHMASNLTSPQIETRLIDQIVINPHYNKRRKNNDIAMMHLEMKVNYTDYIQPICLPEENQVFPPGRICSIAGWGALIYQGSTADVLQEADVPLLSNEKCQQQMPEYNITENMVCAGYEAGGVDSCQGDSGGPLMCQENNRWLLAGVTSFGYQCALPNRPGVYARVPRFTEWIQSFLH

Row | Binder | test peptide rate (Va), in competition with reference peptide GDDDDK-βNA
1 | DINDDRSLF | 0.18
2 | GNYTDRMFI | 0.038
3 | GDDDDKIYV [GDDDDKIYV (positive control test peptide)] | 0.028

Each binder was assayed against T1, streptavidin (UniProt P22629 37-163, limits assumed) (assay: phage ELISA, phage bound to immobilized streptavidin).
T1 construct: Commercial immobilized streptavidin; the construct is not described; also called Sv; immobilized streptavidin
T1 sequence (P22629 37-163 limits assumed): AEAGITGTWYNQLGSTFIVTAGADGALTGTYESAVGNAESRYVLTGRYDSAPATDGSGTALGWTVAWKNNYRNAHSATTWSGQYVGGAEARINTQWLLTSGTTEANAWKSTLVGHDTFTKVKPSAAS

Row | Binder | binding result
4 | phage isolate 5-F08 display polypeptide (unselected control) (other, not shown: M13 phage gene III protein; the display polypeptide is fused to its N-terminus) AEWHPQFSSPSASRPSEGPCHPQFPRCYIENLDEFRPGGSGGAVLSNVMHSDDWTGAQSDGGGSTEHAEGGSADPSYIEGRIVGSA | binds
5 | phage isolate 5-A11 display polypeptide (other, The printed 13-mer is used instead; also called 05-A11; not shown: M13 phage gene III protein; the display polypeptide is fused to its N-terminus) AEWHPQFSSPSASRPSEGPCHPQFPRCYIENLDEFRPGGSGGDLNDVYSERMAMWGAQSDGGGSTEHAEGGSADPSYIEGRIVGSA | binds
6 | phage isolate 5-B05 display polypeptide (other, The printed 13-mer is used instead; also called 05-B05; not shown: M13 phage gene III protein; the display polypeptide is fused to its N-terminus) AEWHPQFSSPSASRPSEGPCHPQFPRCYIENLDEFRPGGSGGSLDDDRTVSPKFWGAQSDGGGSTEHAEGGSADPSYIEGRIVGSA | binds
7 | phage isolate 5-H11 display polypeptide (other, The printed 13-mer is used instead; also called 05-H11; not shown: M13 phage gene III protein; the display polypeptide is fused to its N-terminus) AEWHPQFSSPSASRPSEGPCHPQFPRCYIENLDEFRPGGSGGMGDDDDKIYVYKTGAQSDGGGSTEHAEGGSADPSYIEGRIVGSA | binds
8 | phage isolate 5-A01 display polypeptide (other, not shown: M13 phage gene III protein; the display polypeptide is fused to its N-terminus) AEWHPQFSSPSASRPSEGPCHPQFPRCYIENLDEFRPGGSGGDRMYQLDKTGFMIGAQSDGGGSTEHAEGGSADPSYIEGRIVGSA | binds
9 | phage isolate 5-A08 display polypeptide (other, The printed 13-mer is used instead; also called 05-A08; not shown: M13 phage gene III protein; the display polypeptide is fused to its N-terminus) AEWHPQFSSPSASRPSEGPCHPQFPRCYIENLDEFRPGGSGGDMFSEEDRMMQMQGAQSDGGGSTEHAEGGSADPSYIEGRIVGSA | binds
